Molecular target: T1, purified human complement Factor H (human, UniProt P08603 19-1231)
T1 construct: also called fH
Assay: steady state tryptophan fluorescence titration of Factor H with BSP

T1 sequence (P08603 19-1231 limits assumed): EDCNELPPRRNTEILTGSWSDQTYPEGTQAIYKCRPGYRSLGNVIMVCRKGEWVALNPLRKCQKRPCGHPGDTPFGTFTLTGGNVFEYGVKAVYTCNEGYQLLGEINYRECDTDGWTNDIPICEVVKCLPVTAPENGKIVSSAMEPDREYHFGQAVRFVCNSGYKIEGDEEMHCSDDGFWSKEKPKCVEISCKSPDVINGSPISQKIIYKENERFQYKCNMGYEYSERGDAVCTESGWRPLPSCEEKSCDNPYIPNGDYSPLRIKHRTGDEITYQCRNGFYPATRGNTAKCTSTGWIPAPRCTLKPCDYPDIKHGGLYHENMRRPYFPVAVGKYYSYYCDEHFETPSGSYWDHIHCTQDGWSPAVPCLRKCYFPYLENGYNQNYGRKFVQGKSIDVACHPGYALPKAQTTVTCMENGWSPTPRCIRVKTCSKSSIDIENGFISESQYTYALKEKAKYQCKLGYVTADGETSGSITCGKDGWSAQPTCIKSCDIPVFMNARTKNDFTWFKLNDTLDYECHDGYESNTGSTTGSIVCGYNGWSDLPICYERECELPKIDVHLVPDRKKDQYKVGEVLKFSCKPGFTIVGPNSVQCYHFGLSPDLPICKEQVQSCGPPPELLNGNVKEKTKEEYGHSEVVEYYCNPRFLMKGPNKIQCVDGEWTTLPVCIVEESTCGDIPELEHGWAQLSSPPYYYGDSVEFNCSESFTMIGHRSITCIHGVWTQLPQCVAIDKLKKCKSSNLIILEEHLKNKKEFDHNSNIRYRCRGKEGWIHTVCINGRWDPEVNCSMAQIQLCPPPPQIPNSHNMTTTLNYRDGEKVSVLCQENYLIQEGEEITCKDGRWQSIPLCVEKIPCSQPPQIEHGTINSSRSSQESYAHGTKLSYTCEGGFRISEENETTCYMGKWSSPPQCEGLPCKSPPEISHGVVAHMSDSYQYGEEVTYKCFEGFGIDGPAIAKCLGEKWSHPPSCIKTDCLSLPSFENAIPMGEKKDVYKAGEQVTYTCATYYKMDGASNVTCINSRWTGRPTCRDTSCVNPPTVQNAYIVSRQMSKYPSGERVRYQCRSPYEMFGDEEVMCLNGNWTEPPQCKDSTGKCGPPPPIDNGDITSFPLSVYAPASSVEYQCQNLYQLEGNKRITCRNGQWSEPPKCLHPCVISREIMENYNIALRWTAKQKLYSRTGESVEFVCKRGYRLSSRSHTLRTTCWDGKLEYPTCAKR

Kd: ≤ 1 nM
stoichiometry (BSP:Factor H): 1 molar ratio
B1: human bone sialoprotein (BSP) (ligand)
chain: FSMKNLHRRVKIEDSEENGVFKYRPRYYLYKHAYFYPHLKRFPVQGSSDSSEENGDDSSEEEEEEEETSNEGENNEESNEDEDSEAENTTLSATTLGYGEDATPGTGYTGLAAIQLPKKAGDITNKATKEKESDEEEEEEEEGNENEESEAEVDENEQGINGTSTNSTEAENGNGSSGGDNGEEGEEESVTGANAEGTTETGGQGKGTSKTTTSPNGGFEPTTPPQVYRTTSPPFGKTTTVEYEGEYEYTGVNEYDNGYEIYESENGEPRGDNYRAYEDEYSYFKGQGYDGYDGQNYYHHQ
modifications: glycosylated, phosphorylated and tyrosine-sulfated glycoprotein (sites not given)
notes: Natural BSP of human serum is entered under the same molecule; also called rBSP; recombinant BSP
